Measured values reported in patent US10005817 (EUMEDERIS PHARMACEUTICALS, dated 2018).
Non-standard residues stand in square brackets, D forms with d. No end group written: not given here. *: point of attachment. Dmt = Cc1cc(O)cc(C)c1C[C@H](N)C(=O)O; Tic = O=C(O)[C@@H]1Cc2ccccc2CN1; NHBn = c1ccc(CN*)cc1

Legend:
delta2 opioid receptor = assay: cell-based or functional assay
mu opioid receptor = assay: cell-based or functional assay
Chain of mu opioid receptor (P35372 whole entry): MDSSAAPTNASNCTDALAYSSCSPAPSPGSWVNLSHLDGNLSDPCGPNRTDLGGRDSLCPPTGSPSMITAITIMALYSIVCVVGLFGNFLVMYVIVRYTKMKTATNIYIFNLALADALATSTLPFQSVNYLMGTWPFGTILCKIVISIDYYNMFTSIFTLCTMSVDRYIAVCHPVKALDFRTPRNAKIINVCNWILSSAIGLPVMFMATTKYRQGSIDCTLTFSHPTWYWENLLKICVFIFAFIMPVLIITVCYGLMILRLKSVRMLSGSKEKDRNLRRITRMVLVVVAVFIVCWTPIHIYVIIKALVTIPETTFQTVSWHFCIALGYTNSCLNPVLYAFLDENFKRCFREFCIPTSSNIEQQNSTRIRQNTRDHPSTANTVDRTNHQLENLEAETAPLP

Binder | DOP antagonist IC50 (delta2 opioid receptor) [nM] | MOP agonist EC50 (mu opioid receptor) [nM]
H-[Dmt][Tic]FK(1'‑methyl β‑D‑glucuronyl)-NH2 [EU-A178] | < 0.1 | 
[Dmt][Tic]FK(1‑methyl β‑D‑glucuronyl)-NHBn [EU-A620] | < 0.1 | 480
[Dmt][Tic]F[dK](1‑methyl β‑D‑glucuronyl)-NHBn [EU-A639] | < 0.1 | 280
H-[Dmt][Tic]FK(1'‑octyl β‑D‑glucuronyl)-NH2 [EU-A180] | < 0.1 | 36
